{"source": "patent EP4755916A1", "key": {"[1]": {"target": "human BTN3A1 recombinant protein with his tag (h-BTN3A1-his) (human) (UniProt O00481)", "sequence (O00481 30-254 limits assumed)": "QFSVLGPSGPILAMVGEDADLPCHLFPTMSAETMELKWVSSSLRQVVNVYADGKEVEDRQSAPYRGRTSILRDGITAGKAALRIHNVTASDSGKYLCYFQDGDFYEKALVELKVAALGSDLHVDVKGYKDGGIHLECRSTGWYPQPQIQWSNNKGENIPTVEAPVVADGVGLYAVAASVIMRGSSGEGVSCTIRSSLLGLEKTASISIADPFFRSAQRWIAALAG", "test": "ELISA, plate coated with h-BTN3A1-his 1 ug/mL, B cell supernatant"}, "[2]": {"target": "human BTN3A1 expressed on HEK293 cells (human) (UniProt O00481)", "sequence (O00481 30-513)": "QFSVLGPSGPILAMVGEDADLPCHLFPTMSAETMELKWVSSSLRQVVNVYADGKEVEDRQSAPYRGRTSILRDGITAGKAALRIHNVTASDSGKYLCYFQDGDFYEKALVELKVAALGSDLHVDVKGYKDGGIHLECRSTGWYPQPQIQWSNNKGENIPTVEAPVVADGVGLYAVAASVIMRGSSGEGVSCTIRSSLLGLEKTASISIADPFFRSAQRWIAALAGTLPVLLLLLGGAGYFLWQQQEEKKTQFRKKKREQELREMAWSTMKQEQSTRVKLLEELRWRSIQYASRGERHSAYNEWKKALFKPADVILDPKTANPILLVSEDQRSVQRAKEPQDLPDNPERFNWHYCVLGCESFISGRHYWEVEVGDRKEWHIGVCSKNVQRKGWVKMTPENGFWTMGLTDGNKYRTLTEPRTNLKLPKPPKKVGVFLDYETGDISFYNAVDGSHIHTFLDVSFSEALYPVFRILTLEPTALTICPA", "test": "flow cytometry, HEK293 cells transiently expressing human BTN3A1, B cell supernatant"}, "[3]": {"target": "BTN3A protein on SKOV-3 cells", "test": "cell-based or functional assay"}}, "data": [{"binder": "anti-BTN3A1 rabbit-derived monoclonal antibody r20A3 (antibody, V domains shown) VH: QSVEESGGRLVTPGTPLTLTCTASGFTINNYYMNWVRQAPGKGLEWIGIIYGSDNTYYASWAKGRFTISKTSTTVDLIMTSPTTEDTATYFCVRNLDYSSAYFHIWGPGTLVTVSS VL: QVLTQTPSPVSAAVGGTVSISCQASQSVYNNNRLAWYQQKPGQPPNLLIYEASKLASGVPSRFKGSGSGTQFTLIISEVQCEDAATYYCQGYYSGFIYPFGGGTEVVVK", "values": [{"measurement": "ELISA (OD 450)", "setting": "[1]", "value": 2.1, "unit": "OD450"}, {"measurement": "MFI", "setting": "[2]", "value": 190000, "unit": "MFI"}, {"measurement": "Percentage (%)", "setting": "[2]", "value": 98.3, "unit": "%"}]}, {"binder": "anti-BTN3A1 rabbit-derived monoclonal antibody r17G4 (antibody, V domains shown) VH: QSLEESGGRLVTPGTPLTLTCTASGFSLNDYYITWVRQAPGKGLEWIGVIYGSSNTVYASWAKGRFTISKTSTMVDLRITSPTTEDTATYFCARGYLASSADIWGPGTLVTVSL VL: QVLTQTPSPVSAAVGGTVTINCQSSQSVYNNNRLAWYQQKPGQPPKLLIYDASTLASGVPSRFKGSGSGTDFTLTISDLECADAATYYCQTYYSGYIWAFGGGTEVVVK", "values": [{"measurement": "ELISA (OD 450)", "setting": "[1]", "value": 1.84, "unit": "OD450"}, {"measurement": "MFI", "setting": "[2]", "value": 444000, "unit": "MFI"}, {"measurement": "Percentage (%)", "setting": "[2]", "value": 99, "unit": "%"}]}, {"binder": "20A3-H2L2 (antibody, human IgG1, kappa) heavy: EVQLVESGGGLVQPGGSLRLSCAASGFTINNYYMNWVRQAPGKGLEWVSIIYGSDNTYYASWAKGRFTISKDNSKNTVYLQMNSLRAEDTAVYYCVRNLDYSSAYFHIWGQGTLVTVSSASTKGPSVFPLAPSSKSTSGGTAALGCLVKDYFPEPVTVSWNSGALTSGVHTFPAVLQSSGLYSLSSVVTVPSSSLGTQTYICNVNHKPSNTKVDKRVEPKSCDKTHTCPPCPAPEFEGGPSVFLFPPKPKDTLMISRTPEVTCVVVDVSHEDPEVKFNWYVDGVEVHNAKTKPREEQYNSTYRVVSVLTVLHQDWLNGKEYKCKVSNKALPASIEKTISKAKGQPREPQVYTLPPSREEMTKNQVSLTCLVKGFYPSDIAVEWESNGQPENNYKTTPPVLDSDGSFFLYSKLTVDKSRWQQGNVFSCSVMHEALHNHYTQKSLSLSPGK light: DIQLTQSPSSLSASVGDRVTITCQASQSVYNNNRLAWYQQKPGKPPKLLIYEASKLASGVPSRFSGSGSGTDFTLTISSLQPEDVATYYCQGYYSGFIYPFGGGTKVEIKRTVAAPSVFIFPPSDEQLKSGTASVVCLLNNFYPREAKVQWKVDNALQSGNSQESVTEQDSKDSTYSLSSTLTLSKADYEKHKVYACEVTHQGLSSPVTKSFNRGEC", "values": [{"measurement": "EC50 of IFNγ secretion by Vγ9Vδ2 T cells co-cultured with SKOV-3 cells", "setting": "[3]", "value": 0.284, "unit": "nM"}, {"measurement": "Maximum IFNγ (pg/mL), Vγ9Vδ2 T cells co-cultured with SKOV-3 cells", "setting": "[3]", "value": 2470, "unit": "pg/mL"}]}]}
